Paper PMC10802454

Biological target: AriA (Escherichia coli strain B185)
Experiment: cryo-EM structure

AriA (natural protein) gave a stoichiometry N of 6.
